Source: patent publication US8409836B2, “Treatment of cellulosic material and enzymes useful therein” (Roal Oy, priority 2005, dated 2013)

Legend:
Type in all cases: biochemical
[1] = Crystalline cellulose (Avicel) hydrolysis by recombinant cellobiohydrolases; details: 70° C., pH 5.0, enzyme 1.4 μM
Experimental: The purified recombinant cellobiohydrolases Ct Cel7A, Ta Cel7A, Ta Cel7A+Tr CBD, Ta Cel7A+Ct CBD, At Cel7A as well as the core version of Ct Cel7A (see below) were tested in equimolar amounts in crystalline cellulose hydrolysis at two temperatures, 45° C. and 70° C.; the purified T. reesei Tr Cel7A and its core version (see below) were used as comparison. The crystalline cellulose (Ph 101, Avicel; Fluka, Bucsh, Switzerland) hydrolysis assays were performed in 1.5 ml tube scale 50 mM sodium acetate, pH 5.0. Avicel was shaken at 45° C. or at 70° C., with the enzyme solution (1.4 μM), and the final volume of the reaction mixture was 325 μl. The hydrolysis was followed up to 24 hours taking samples at six different time points and stopping the reaction by adding 163 μl of stop reagent containing 9 vol of 94% ethanol and 1 vol of 1 M glycine (pH 11). […] The formation of soluble reducing sugars in the supernatant was determined by para-hydroxybenzoicacidhydrazide (PAHBAH) method (Lever, 1972) using a cellobiose standard curve (50 to 1600 μM cellobiose). […] The absorbance of the samples at 405 nm was measured.
The core versions of the cellobiohydrolases harboring a CBD in their native form were obtained as follows: Ct Cel7A and Tr Cel7A were exposed to proteolytic digestion to remove the cellulose-binding domain. […] The product was analysed in SDS-PAGE.

[2] = Hydrolysis with CBH enzyme mixtures, Avicel; details: additional enzymes EGII, bG; 48 h, 45° C., pH 5.0
Method in brief: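 Each CBH/Cel7 dosed at 14.5 mg/g substrate dry matter with T. reesei EGII/Cel5A (3.6 mg/g) or with EGI (1.8 mg/g), EGII (1.8 mg/g), xylanase (5000 nkat/g) and AXE (250 nkat/g), plus β-glucosidase (176 nkat/g d.w.). Avicel at 10 mg/ml in 0.05 M sodium acetate, stirred 48 h at 45° C, triplicates; reducing sugars by DNS versus glucose standard.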

[3] = Hydrolysis with CBH enzyme mixtures, spruce; details: additional enzymes EGII, bG; 48 h, 45° C., pH 5.0
Method in brief: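 Washed SO2-steam pre-treated spruce (10 mg dry matter/ml, 0.05 M sodium acetate) hydrolysed 48 h at 45 °C with each CBH/Cel7 (14.5 mg/g) plus T. reesei EGII (3.6 mg/g), or plus EGI, EGII, xylanase and AXE, all with added β-glucosidase. Reducing sugars measured by DNS against glucose.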

[4] = Hydrolysis with CBH enzyme mixtures, corn stover; details: additional enzymes EGII, bG, 48 h, 45° C., pH 5.0
Method in brief: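 Purified recombinant CBH/Cel7 (14.5 mg/g substrate dry matter) combined with T. reesei EGII/Cel5A or an EGI/EGII/xylanase/AXE mixture, plus β-glucosidase (176 nkat/g). Washed wet-oxidized corn stover, 10 mg/ml in 0.05 M sodium acetate, stirred 48 h at 45° C, triplicate. Reducing sugars by DNS against glucose, versus inactivated-enzyme references.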

[5] = Hydrolysis with CBH enzyme mixtures, willow; details: additional enzymes EGII, bG, 48 h, 45° C., pH 5.0
Method in brief: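 Purified CBH/Cel7 (14.5 mg/g substrate dry matter) combined with T. reesei EGII/Cel5A (3.6 mg/g) or with EGI (1.8 mg/g), EGII (1.8 mg/g), xylanase pI 9 (5000 nkat/g) and AXE (250 nkat/g), plus β-glucosidase (176 nkat/g). Washed steam-pretreated willow, 10 mg/ml in 0.05 M sodium acetate, 45° C., 48 h. Reducing sugars by DNS (glucose standard).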

[6] = Xylanase activity on birch xylan; details: purified cellobiohydrolases, 50° C., pH 5.0
Experimental: (§1) The specific activity of the preparations was determined using 4-methylumbelliferyl-β-D-lactoside (MUL), 4-methylumbelliferyl-β-D-cellobioside (MUG2) or 4-methylumbelliferyl-β-D-cellotrioside (MUG3) as substrate (van Tilbeurgh et al., 1988) in 0.05 M sodium citrate buffer pH 5 at 50° C. for 10 min. Endoglucanase and xylanase activities were determined by standard procedures (according to IUPAC, 1987) using carboxymethyl cellulose (CMC) and birch glucuronoxylan (Bailey et al., 1992) as substrates. Specific activity against Avicel was calculated on the basis of reducing sugars formed in a 24 h reaction at 50° C., pH 5.0, with 1% substrate and 0.25 μM enzyme dosage. The protein content of the purified enzyme preparations was measured according to Lowry et al., 1951. To characterize the end products of hydrolysis, soluble sugars liberated in 24 h hydrolysis experiment, as described above, were analysed by HPLC (Dionex). Purified cellobiohydrolase I (CBHI/Cel7A) of Trichoderma reesei was used as a reference.
Acremonium thermophilum ALKO4245 was grown as described in Example 1. The culture supernatant was incubated at 70° C. for 24 hours after which, it was concentrated by ultrafiltration. The pure xylanase was obtained by sequential purification with hydrophobic interaction and cation exchange chromatography followed by gel filtration. The xylanase activity was determined using birch xylan as substrate (procedure of IUPAC 1987). Protein was assayed by BioRad Protein Assay Kit (Bio-Rad Laboratories) using bovine serum albumin as standard.
Thermoascus aurantiacus ALKO4242 was grown as described in Example 1. The pure xylanase was obtained by sequential purification with hydrophobic interaction, anion, and cation exchange chromatography followed by gel filtration. The xylanase activity was determined using birch xylan as substrate (procedure of IUPAC 1987). Protein was assayed by BioRad Protein Assay Kit (Bio-Rad Laboratories) using bovine serum albumin as standard.

[7] = Endoglucanase activity on carboxymethyl cellulose; details: purified cellobiohydrolases, 50° C., pH 5.0
Experimental: as §1
(§2) Acremonium thermophilum ALKO4245 was grown as described in Example 1. The culture supernatant was incubated at 70° C. for 24 hours after which it was concentrated by ultrafiltration. The pure endoglucanase was obtained by sequential purification with hydrophobic interaction and cation exchange chromatography followed by gel filtration. The endoglucanase activity of the fractions collected during purification was determined using carboxymethyl cellulose (CMC) as substrate (procedure of IUPAC 1987). Protein content was measured by BioRad Assay Kit (Bio-Rad Laboratories) using bovine serum albumine as standard.
as §2, with “Thermoascus aurantiacus ALKO4242 was” for “Acremonium thermophilum ALKO4245 was”, “1.” for “1. The culture supernatant was incubated at 70° C. for 24 hours after which it was concentrated by ultrafiltration.”, “and anion” for “and cation”

[8] = Specific activity on MUG2; details: purified cellobiohydrolases, 50° C., pH 5.0
Experimental: as §1

[9] = Specific activity on MUG3; details: purified cellobiohydrolases, 50° C., pH 5.0
Experimental: as §1

Specific activity on MUL = details: purified cellobiohydrolases, 50° C., pH 5.0
Experimental: as §1

[10] = Specific activity against Avicel; details: 50° C., pH 5.0, 24 h, 1% substrate, 0.25 μM enzyme
Experimental: as §1

[11] = Thermal stability of purified cellobiohydrolases; details: 0.1% BSA, pH 5.0, 60 min, MUL substrate
Experimental: Thermal stability of the purified cellobiohydrolases was determined at different temperatures. The reaction was performed in the presence of 0.1% BSA at pH 5.0 for 60 min using 4-methylumbelliferyl-β-D-lactoside as substrate. C. thermophilum ALKO4265 CBH/Cel7A and A. thermophilum ALKO4245 CBH/Cel7A were stable up to 65° and 60° C., respectively. The T. reesei reference enzyme (CBHI/Cel7A) retained 100% of activity up to 55° C.

[12] = pH optimum of recombinant CBH/Cel7 proteins; details: McIlvaine buffer, pH range 3.0-8.0, MUL, 50° C., 10 min
Experimental: (§3) The recombinant CBH/Cel7 enzyme preparations were characterized in terms of pH optimum and thermal stability. The pH optimum of the recombinant CBH/Cel7 proteins from Thermoascus aurantiacus, Chaetomium thermophilum, and Acremonium thermophilum were determined in the universal McIlvaine buffer within a pH range of 3.0-8.0 using 4-methylumbelliferyl-β-D-lactoside (MUL) as a substrate (FIG. 3A). The pH optimum for Ct Cel7A and At Cel7A enzymes is at 5.5, above which the activity starts to gradually drop. The pH optimum of the recombinant crude Ta Cel7A is at 5.0 (FIG. 3A). Thermal stability of the recombinant Cel7 enzymes was determined by measuring the MUL activity in universal McIlvaine buffer at the optimum pH with reaction time of 1 h.

[13] = Thermal stability of recombinant Cel7 enzymes; details: MUL activity, optimum pH, reaction time 1 h
Experimental: as §3

Molecule	Avicel hydrolysis as compared to T. reesei Cel7A [1]	Hydrolysis products as reducing sugars, Avicel [2] [mg/mL]	Hydrolysis products as reducing sugars, SPRUCE [3] [mg/mL]	Hydrolysis products as reducing sugars, WOCS ([4]; EGI, XYL, AXE) [mg/mL]	Hydrolysis products as reducing sugars, WOCS [4] [mg/mL]	Hydrolysis products as reducing sugars, WILLOW ([5]; EGI, XYL, AXE) [mg/mL]	Hydrolysis products as reducing sugars, WILLOW [5] [mg/mL]	Specific activity, Xylan [6] [nkat/mg]	Specific activity, CMC [7] [nkat/mg]	Specific activity, MUG2 [8] [nkat/mg]	Specific activity, MUG3 [9] [nkat/mg]	Specific activity, MUL (Specific activity on MUL) [nkat/mg]	Specific activity, Avicel [10] [nkat/mg]	Thermal stability: temperature up to which stable / 100% of activity retained [11] [°C]	pH optimum [12]	Thermal stability at the higher temperatures (≧65° C.) [13]
Ta Cel7A + Tr CBD: Thermoascus aurantiacus Cel7A fused to linker and CBD of Trichoderma reesei CBHI/Cel7A, SEQ ID NO: 28 (protein) MYQRALLFSFFLAAARAQQAGTVTAENHPSLTWQQCSSGGSCTTQNGKVVIDANWRWVHTTSGYTNCYTGNTWDTSICPDDVTCAQNCALDGADYSGTYGVTTSGNALRLNFVTQSSGKNIGSRLYLLQDDTTYQIFKLLGQEFTFDVDVSNLPCGLNGALYFVAMDADGGLSKYPGNKAGAKYGTGYCDSQCPRDLKFINGQANVEGWQPSANDPNAGVGNHGSCCAEMDVWEANSISTAVTPHPCDTPGQTMCQGDDCGGTYSSTRYAGTCDPDGCDFNPYRQGNHSFYGPGQIVDTSSKFTVVTQFITDDGTPSGTLTEIKRFYVQNGKVIPQSESTISGVTGNSITTEYCTAQKAAFGDNTGFFTHGGLQKISQALAQGMVLVMSLWDDHAANMLWLDSTYPTDADPDTPGVARGTCPTTSGVPADVESQYPNSYVIYSNIKVGPIGSTGNPSGGNPPGGNPPGTTTTRRPATTTGSSPGPTQSHYGQCGGIGYSGPTVCASGTTCQVLNPYYSQCL	superior	5.8	4.0	7.2	4.4	5.9	4.0									
At Cel7A: cellobiohydrolase of Acremonium thermophilum ALKO4245, gene At cel7A, amino acid SEQ ID NO: 6, with CBD (protein) MYTKFAALAALVATVRGQAACSLTAETHPSLQWQKCTAPGSCTTVSGQVTIDANWRWLHQTNSSTNCYTGNEWDTSICSSDTDCATKCCLDGADYTGTYGVTASGNSLNLKFVTQGPYSKNIGSRMYLMESESKYQGFTLLGQEFTFDVDVSNLGCGLNGALYFVSMDLDGGVSKYTTNKAGAKYGTGYCDSQCPRDLKFINGQANIDGWQPSSNDANAGLGNHGSCCSEMDIWEANKVSAAYTPHPCTTIGQTMCTGDDCGGTYSSDRYAGICDPDGCDFNSYRMGDTSFYGPGKTVDTGSKFTVVTQFLTGSDGNLSEIKRFYVQNGKVIPNSESKIAGVSGNSITTDFCTAQKTAFGDTNVFEERGGLAQMGKALAEPMVLVLSVWDDHAVNMLWLDSTYPTDSTKPGAARGDCPITSGVPADVESQAPNSNVIYSNIRFGPINSTYTGTPSGGNPPGGGTTTTTTTTTSKPSGPTTTTNPSGPQQTHWGQCGGQGWTGPTVCQSPYTCKYSNDWYSQCL		5.3	3.3	6.4	4.5	5.4	3.3	11.3	26.2	9.2	1.3	21.5	1.8	≤ 60	5.5	clearly less stable
